Experimental data published in patent US20180230200A1 (CITY OF HOPE, published 2018).

Experiments:
[1] = molecular target: T1, gH/gL/UL128/UL130/UL131A pentamer complex expressed from MVA-PC in BHK-21 cells (human cytomegalovirus, UniProt P12824 24-743; P16832 31-278; P16837 28-171; P16772 1-214; F5HET4 19-129); experiment: FC competition, MVA-PC BHK-21; unlabelled row Ab; competitor: biotinylated 1B2
T1 construct: whole, on cells

[2] = molecular target: T1, gH/gL/UL128/UL130/UL131A pentamer …; experiment: FC competition, MVA-PC BHK-21; unlabelled row Ab; competitor: biotinylated 13B5
KLH-K15M = molecular target: T2, KLH-K15M (human cytomegalovirus); experiment: ELISA with KLH-coupled peptides (FIG. 11A)
T2 peptide: KHKRLDVCRAKMGYM

KLH-K16CS = molecular target: T3, KLH-K16CS; experiment: ELISA with KLH-coupled peptides (FIG. 11A)
T3 peptide: KHKRLDVSRAKMGYMC

KLH-K14CS = molecular target: T4, KLH-K14CS; experiment: ELISA with KLH-coupled peptides (FIG. 11A)
T4 peptide: KRLDVSRAKMGYMC

[3] = molecular target: gH/gL/UL128/UL130/UL131A pentamer complex (PC) of HCMV strain TB40/E virus (human cytomegalovirus strain TB40/E); experiment: cell-based or functional assay
[4] = molecular target: gH/gL/UL128/UL130/UL131A pentamer complex (PC) of HCMV strain TR virus (human cytomegalovirus strain TR); experiment: cell-based or functional assay
[5] = molecular target: T1, gH/gL/UL128/UL130/UL131A pentamer …; experiment: FC competition, MVA-PC BHK-21; unlabelled row Ab; competitor: biotinylated 54E11
[6] = molecular target: T1, gH/gL/UL128/UL130/UL131A pentamer …; experiment: FC, biotinylated NAb titrated on MVA-PC-infected BHK-21 (cell surface PC)
[7] = molecular target: T5, gH/gL co-expressed from MVA in BHK-21 cells (human cytomegalovirus, UniProt P12824 24-743; P16832 31-278); experiment: intracellular FC, MVA-infected BHK-21
T5 construct: whole, on cells

[8] = molecular target: T6, UL131A expressed from MVA in BHK-21 cells (human cytomegalovirus, UniProt F5HET4 19-129); experiment: intracellular FC, MVA-infected BHK-21
T6 construct: whole, on cells

[9] = molecular target: T7, gH/gL/UL131A co-expressed from MVA in BHK-21 cells (human cytomegalovirus, UniProt P12824 24-743; P16832 31-278; F5HET4 19-129); experiment: intracellular FC, MVA-infected BHK-21
T7 construct: whole, on cells

[10] = molecular target: T8, gH/gL/UL130/UL131A co-expressed from MVA in BHK-21 cells (human cytomegalovirus, UniProt P12824 24-743; P16832 31-278; P16772 1-214; F5HET4 19-129); experiment: intracellular FC, MVA-infected BHK-21
T8 construct: whole, on cells

[11] = molecular target: T9, gH expressed from MVA in BHK-21 cells (human cytomegalovirus, UniProt P12824 24-743); experiment: intracellular FC, MVA-infected BHK-21
T9 construct: whole, on cells

[12] = molecular target: T10, UL130 expressed from MVA in BHK-21 cells (human cytomegalovirus, UniProt P16772 1-214); experiment: intracellular FC, MVA-infected BHK-21
T10 construct: whole, on cells

[13] = molecular target: T11, gH/gL/UL130 co-expressed from MVA in BHK-21 cells (human cytomegalovirus, UniProt P12824 24-743; P16832 31-278; P16772 1-214); experiment: intracellular FC, MVA-infected BHK-21
T11 construct: whole, on cells

[14] = molecular target: T12, UL130/UL131A co-expressed from MVA in BHK-21 cells (human cytomegalovirus, UniProt P16772 1-214; F5HET4 19-129); experiment: intracellular FC, MVA-infected BHK-21
T12 construct: whole, on cells

[15] = molecular target: T1, gH/gL/UL128/UL130/UL131A pentamer …; experiment: FC competition, MVA-PC BHK-21; unlabelled row Ab; competitor: biotinylated 12E2
[16] = molecular target: T1, gH/gL/UL128/UL130/UL131A pentamer …; experiment: FC competition, MVA-PC BHK-21; unlabelled row Ab; competitor: biotinylated 21F6
[17] = molecular target: T1, gH/gL/UL128/UL130/UL131A pentamer …; experiment: FC competition, MVA-PC BHK-21; unlabelled row Ab; competitor: biotinylated 18F10

B1: 13B5 (antibody, V domains shown)
VH: QVTLKESGPGILKPSQTLSLTCSFSGFSLTTSGLGVGWIRQPSGKGLEWLAHIWWDDDKYFNPSLRNQLTISKDTSRNQVFLEITSVTTADTATYYCVRSLYDYDEGYYFDSWGQGTTLTVSS
VL: EIVMIQSPATLSVNPGDRVSLSCRASQSISDYLHWYQQKSHESPRLLIKYASQSISGIPSRFSGSGSGSDFTLSINSVEPEDVGVYYCQNGHTFPPTFGGGTKLEIK
notes: also called NAb 13B5; 1365
[1]
  Binding Inhibition (%): 0%
[2]
  Binding Inhibition (%): 100%
KLH-K15M
  binding result: binds
KLH-K16CS
  binding result: binds
KLH-K14CS
  binding result: binds
[3]
  IC50, inhibition of TB40/E cell-to-cell spread in ARPE-19: 22 µg/mL
  IC50, neutralization of TB40/E infection of ARPE-19: 0.015 µg/mL
  IC50, neutralization of TB40/E infection of CTB: 0.0998 µg/mL
  IC50, neutralization of TB40/E infection of HUVEC: 0.012 µg/mL
  IC50, neutralization of TB40/E infection of MRC-5: > 25 µg/mL
[4]
  IC50, inhibition of TR cell-to-cell spread in ARPE-19: 21 µg/mL
  IC50, neutralization of TR infection of ARPE-19: 0.0199 µg/mL
  IC50, neutralization of TR infection of HUVEC: 0.0077 µg/mL
  IC50, neutralization of TR infection of MRC-5: > 25 µg/mL
[5]
  Binding Inhibition (%): 0%
[6]
  EC50: 0.68 nM
[7]
  binding result: no binding
[8]
  binding result: no binding
[9]
  binding result: no binding
[10]
  binding result: no binding
[11]
  binding result: no binding
[12]
  binding result: no binding
[13]
  binding result: no binding
[14]
  binding result: no binding
[15]
  Binding Inhibition (%): 0%
[16]
  Binding Inhibition (%): 0%
[17]
  Binding Inhibition (%): 0%
